From patent US20220016243A1 (published 2022)

Target: T1, TIGIT (T-cell immunoreceptor with Ig and ITIM domains), peripheral TIGIT receptors on patients' CD4+ T cells, … (human (patients), UniProt Q495A1 22-244)
T1 construct: whole, on cells; Endogenous receptor on patients' peripheral immune cells; Occupancy was measured ex vivo after dosing with tiragolumab
T1 sequence (looked up): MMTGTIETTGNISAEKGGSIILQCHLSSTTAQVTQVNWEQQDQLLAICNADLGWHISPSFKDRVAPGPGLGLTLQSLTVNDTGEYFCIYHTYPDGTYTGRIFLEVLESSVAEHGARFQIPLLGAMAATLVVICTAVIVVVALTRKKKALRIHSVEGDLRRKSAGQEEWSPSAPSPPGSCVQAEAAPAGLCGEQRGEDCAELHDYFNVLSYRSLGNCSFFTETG
Assay: receptor occupancy on peripheral CD8+ T cells and NK cells of patients dosed at 2-1200 mg Q3W (Phase Ia, Study GO30103)

- binding result: binds
B1: tiragolumab (antibody, human IgG1, kappa, V domains shown)
VH: EVQLQQSGPGLVKPSQTLSLTCAISGDSVSSNSAAWNWIRQSPSRGLEWLGKTYYRFKWYSDYAVSVKGRITINPDTSKNQFSLQLNSVTPEDTAVFYCTRESTTYDLLAGPFDYWGQGTLVTVSS
VL: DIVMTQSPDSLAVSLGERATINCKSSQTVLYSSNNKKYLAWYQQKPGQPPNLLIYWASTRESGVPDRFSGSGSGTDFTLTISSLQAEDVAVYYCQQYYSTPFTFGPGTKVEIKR
notes: also called MTIG7192A; RG6058
